For the data set the following is noted: Bacillus caldolyticus, pH 7, CD, sodium cacodylate-HCl 100 mM, reversible: yes, whole UniProt chain shown.

Broadly, the Tm is the temperature at which the thermal transition is half complete.

B1: Cold shock protein CspB wild type, P41016 (protein)
chain: MQRGKVKWFNNEKGYGFIEVEGGSDVFVHFTAIQGEGFKTLEEGQEVSFEIVQGNRGPQAANVVKL
With B1, for the setting “25 °C, GdnHCl”, the denaturant m value worked out at 1.77 kcal/mol/M, the “denaturant midpoint (higher = more stable)” value was 2.68 M and the unfolding free energy worked out at 1.2 kcal/mol. In addition, the unfolding free energy (70 °C, Thermal, NaCl 2 M) stood at 2.2 kcal/mol. Also, under “70 °C, Thermal”, the unfolding free energy amounted to 1.08 kcal/mol. For the same protein, under “Thermal”, the Tm was found to be 76.9 °C and the “unfolding enthalpy (van 't Hoff)” value came to 58.6 kcal/mol.

The values above are taken from FireProtDB (doi:10.1006/jmbi.2001.5050).
